From patent US11905559B2, “Materials and methods for controlling gene expression” (priority 2016, dated 2024)
Substitutions are numbered along the chain they refer to. In names and notes the source's numbering stands. Several values for one entry are separate records, joined by “and”; a condition that tells them apart may be missing. Equal entries are not always repeated.

B1: m1: m1 mutant guanine sensing aptamer RNA (SEQ ID NO: 2); G37 replaced with adenine in the L2 loop (nucleic acid)
chain: CACUCAUAUAAUCGCGUGGAUAUAGCACGCAAGUUUCUACCGGGCACCGUAAAUGUCCGACUAUGGGUG
modifications: RNA, backbone and methylation of C not given here
notes: G37 replaced with adenine in the L2 loop
B2: m6: m6 mutant guanine sensing aptamer RNA (SEQ ID NO: 7); U67A, shorter P3 hairpin and larger L3 loop (nucleic acid)
chain: B1 chain with A24G, U54A
modifications: RNA, backbone and methylation of C not given here
notes: U67A, shorter P3 hairpin and larger L3 loop
B3: m4: m4 mutant guanine sensing aptamer RNA (SEQ ID NO: 5); A59G/U67C in the P3 hairpin (nucleic acid)
chain: B1 chain with A24G, A46G, U54C
modifications: RNA, backbone and methylation of C not given here
notes: A59G/U67C in the P3 hairpin

Experiment: Constant-force (CF) single-molecule optical tweezers folding assay of guanine-aptamer RNAs in guanine buffer
Assay type: physicochemical
Settings: for ΔG (0): zero force
From the text: The aptamer folding was monitored in real time using a constant-force (CF) assay. Equilibrium sampling techniques provide unprecedented insights into the rare events in the course of folding that are otherwise difficult to identify. The technique also allows for determination of the kinetic rates that has not been fully investigated in the guanine riboswitch. The relative dynamics of the helices have been investigated in ensemble and smFRET experiments, which indicated a non-dynamic P1-P3, upon which the P2 helix switches conformations. As shown in FIG. 6A (left panel), the RNA oscillated between the linear and the hairpin conformations (E↔D↔C) at 13 pN. The distances ΔXED=7.1±0.4 nm and ΔXDC=7.9±0.4 nm correspond to the folding of a 17±1 nt (P2) and 19±1 nt (P3) respectively (FIGS. 7A-B). The conversion of distances to nucleotides in CF assay are described in Table 2.
A miniaturized dual beam optical tweezers instrument was constructed with a sampling rate of 0.4, 4 and 40 kHz. Typically, in the tweezers set up (FIGS. 2A-E), a single-molecule of RNA is held between two beads via ˜550 nucleotide (nt) long Handles A and B. Preparation of Handles and the RNA is described in the section above. The streptavidin coated polystyrene bead (diameter 1.5-1.9 μm, Spherotech Inc.) is fixed on a micropipette via suction, and the anti-digoxigenin coated bead (diameter 4.0-4.9 μm, Spherotech Inc.) is held in the dual counter-propagating laser beam. The trap stiffness, K is measured at 0.04-0.06 pN/nm from the power spectrum analysis of the Brownian motion of the trapped bead. For power spectrum analysis, a polystyrene bead with diameter ˜4.6 μm is trapped in the counter-propagating laser beam in aqueous buffer with a fixed trap position. […] The average from 10 beads yielded K˜0.049±0.0008 pN/nm, and the stoke's drag coefficient, y=0.0364±0.0002 pN. s/μm. […] However, the autocorrelation time (τ0) defined as the τ1=1/2πfc as described by Zoldak et al., “Ultrafast folding kinetics and cooperativity of villin headpiece in single-molecule force spectroscopy”. Proc. Natl. Acad. Sci. U.S.A 110, 18156 (2013) sets the detection limit for the observable kinetics, which is different from the sampling frequencies. […] The ACF for the time series of force signal, Fi, with sampling rate δ and N data points, is calculated as,
In a constant-force (CF) experiment, the RNA is held at a preset force through feedback control. The preset force typically fluctuated around the mean with a standard deviation ±0.15 pN. In this mode, data is recorded from 4-40 kHz to capture the fast intermediates. The plots are shown as extension vs. time (as in FIG. 6A). In force-jump (FJ) assay, the force is suddenly jumped from one force to another, and then held constant thereafter, as shown in FIGS. 23A-B.
All FR, CF and FJ experiments were carried out at an ambient temperature, 25±0.5° C. The buffer in the microfluidics contained 10 mM Tris-HCl, pH 7.5 at 25° C., 250 mM NaCl, 3 mM MgCl2, and purine concentrations as indicated in wild-type aptamer. Unless stated otherwise, Mg^2+ concentration in the buffer was maintained at 3 mM in all experiments. The buffer in mutant m1 contained 5 mm Mg^2+ and 1 μM G, and in m3 contained 5 mM Mg^2+ and 200 nM Guanine. For the remaining m2, m4, m5 and m6 mutants, the buffer in single-molecule experiments was supplemented only with 3 mM Mg^2+ and 200 nM Guanine.
In the force-ramp experiment, the trap was moved away (pull cycle) from the micropipette at 200 nm/sec, which corresponded to a loading rate of 7-8 pN/sec. This movement of the trap exerted a tension at the ends of the tethered RNA aptamer. […] In the constant-force (CF) experiment, the RNA was held at a preset force (FIG. 6A). The loading rate in CF experiments was zero. The preset force typically fluctuated around the mean with standard deviation ±0.15 pN. […]

[1] = transition C′A (merged C′B and BA), F 6.1 pN, 5 mM Mg^2+, 1 uM G
[2] = transition DC (P3 folding), F 12.0 pN, 5 mM Mg^2+, 1 uM G
[3] = transition ED (P2 folding), F 13.5 pN, 5 mM Mg^2+, 1 uM G
[4] = transition BA (P1 folding), 3 mM Mg^2+, 200 nM G (rates at 8.5 pN)
[5] = transition BA (P1 folding), F 8.5 pN, 3 mM Mg^2+, 200 nM G
[6] = transition BA (P1 folding), F 8.5 pN, 3 mM Mg^2+, 200 nM G, no helix width adjustment
[7] = transition BA (P1 folding), from data at 8.5 pN, 3 mM Mg^2+, 200 nM G
[8] = transition C′B (L2-L3 folding), 3 mM Mg^2+, 200 nM G (rates at 8.5 pN)
[9] = transition C′B (L2-L3 folding), F 8.5 pN, 3 mM Mg^2+, 200 nM G
[10] = transition C′B (L2-L3 folding), from data at 8.5 pN, 3 mM Mg^2+, 200 nM G
[11] = transition DC (P3 folding), 3 mM Mg^2+, 200 nM G (rates at 13 pN)
[12] = transition DC (P3 folding), F 13 pN, 3 mM Mg^2+, 200 nM G
[13] = transition DC (P3 folding), from data at 13 pN, 3 mM Mg^2+, 200 nM G
[14] = transition ED (P2 folding), 3 mM Mg^2+, 200 nM G (rates at 13 pN)
[15] = transition ED (P2 folding), F 13 pN, 3 mM Mg^2+, 200 nM G
[16] = transition ED (P2 folding), from data at 13 pN, 3 mM Mg^2+, 200 nM G

| Molecule | Equilibrium force F^eq [4] | Folding rate kf [5] | Unfolding rate ku [5] | Transition distance ΔX [6] | ΔG (0) [7] | Equilibrium force F^eq [8] | Folding rate kf [9] | Transition distance ΔX [9] | Unfolding rate ku [9] | ΔG (0) [10] | Equilibrium force F^eq [11] | Folding rate kf [12] | Transition distance ΔX [12] | Unfolding rate ku [12] | ΔG (0) [13] | Equilibrium force F^eq [14] | Folding rate kf [15] | Transition distance ΔX [15] | Unfolding rate ku [15] | ΔG (0) [16] | also measured |
| --- | --- | --- | --- | --- | --- | --- | --- | --- | --- | --- | --- | --- | --- | --- | --- | --- | --- | --- | --- | --- | --- |
| B1 | – | – | – | – | – | – | – | – | – | – | – | – | – | – | – | – | – | – | – | – | Equilibrium force F^eq (transition C′A (merged C′B and BA), 5 mM Mg^2+, 1 uM G (rates at 6.1 pN)): 6 pN and 6.0 ± 0.03 pN; Folding rate kf [1]: 0.6 ± 0.05 s⁻¹; Transition distance ΔX [1]: 12.4 ± 0.3 nm; Unfolding rate ku [1]: 0.6 ± 0.05 s⁻¹; ΔG (0) (transition C′A (merged C′B and BA), from data at 6.1 pN, 5 mM Mg^2+, 1 uM G): −12.4 ± 0.5 kBT; Equilibrium force F^eq (transition DC (P3 folding), 5 mM Mg^2+, 1 uM G (rates at 12.0 pN)): 12.2 ± 0.01 pN; Folding rate kf [2]: 20.7 ± 0.4 s⁻¹; Transition distance ΔX [2]: 7.7 ± 0.3 nm; Unfolding rate ku [2]: 15.2 ± 0.3 s⁻¹; ΔG (0) (transition DC (P3 folding), from data at 12.0 pN, 5 mM Mg^2+, 1 uM G): −15.9 ± 0.9 kBT; Equilibrium force F^eq (transition ED (P2 folding), 5 mM Mg^2+, 1 uM G (rates at 13.5 pN)): 13.4 ± 0.01 pN; Folding rate kf [3]: 11.8 ± 0.3 s⁻¹; Transition distance ΔX [3]: 7.2 ± 0.2 nm; Unfolding rate ku [3]: 15.1 ± 0.3 s⁻¹; ΔG (0) (transition ED (P2 folding), from data at 13.5 pN, 5 mM Mg^2+, 1 uM G): −16.6 ± 0.7 kBT |
| B2 | 8.3 ± 0.3 pN | 0.7 ± 0.02 s⁻¹ | 1.0 ± 0.1 s⁻¹ | 9.8 ± 0.2 nm | −13.9 ± 0.4 kBT | 7.2 ± 0.5 pN | 7.5 ± 0.2 s⁻¹ | 3.5 ± 0.2 nm | 23.9 ± 0.6 s⁻¹ | −6.1 ± 0.4 kBT | 10.6 ± 0.1 pN | 1.1 ± 0.03 s⁻¹ | 7.3 ± 0.1 nm | 115.4 ± 4.4 s⁻¹ | −11.1 kBT and −11.1 ± 0.3 kBT | 13.8 ± 0.03 pN | 23.9 ± 0.5 s⁻¹ | 7.1 ± 0.1 nm | 7.2 ± 0.2 s⁻¹ | −17.1 ± 0.3 kBT | L2-L3 kissing faster than wild-type (C′B folding rate): 8.33 times |
| B3 | 8.0 ± 0.1 pN | 0.33 ± 0.02 s⁻¹ | 1.0 ± 0.1 s⁻¹ | 9.5 ± 0.3 nm | −12.5 kBT and −12.5 ± 0.6 kBT | 7.6 ± 0.1 pN | 0.22 ± 0.02 s⁻¹ | 3.4 ± 0.1 nm | 0.56 ± 0.04 s⁻¹ | −6.1 ± 0.2 kBT | 13.0 ± 0.02 pN | 16.3 ± 0.3 s⁻¹ | 7.8 ± 0.2 nm | 16.5 ± 0.4 s⁻¹ | −17.3 ± 0.6 kBT | 13.9 ± 0.01 pN | 34.8 ± 1.1 s⁻¹ | 7.2 ± 0.2 nm | 8.8 ± 0.2 s⁻¹ | −17.6 ± 0.6 kBT | L2-L3 kissing rate reduced versus wild-type (C′B folding rate): 4.5 fold; Barrier ΔGkiss^‡ prior to the L2-L3 interactions (free energy landscape transformed to zero force): ~8.4 kBT; Increase of P3 stability ΔG(0) versus wild-type (transition DC): 1 kT |
